This note sets out measurements from paper PMC7477745.

Some results are limits rather than exact numbers.

The experiment deals with CD2 (human (endogenous in primary CD8+ T cells)) (UniProt P06729).
Chain of UniProt P06729 (P06729 25-351): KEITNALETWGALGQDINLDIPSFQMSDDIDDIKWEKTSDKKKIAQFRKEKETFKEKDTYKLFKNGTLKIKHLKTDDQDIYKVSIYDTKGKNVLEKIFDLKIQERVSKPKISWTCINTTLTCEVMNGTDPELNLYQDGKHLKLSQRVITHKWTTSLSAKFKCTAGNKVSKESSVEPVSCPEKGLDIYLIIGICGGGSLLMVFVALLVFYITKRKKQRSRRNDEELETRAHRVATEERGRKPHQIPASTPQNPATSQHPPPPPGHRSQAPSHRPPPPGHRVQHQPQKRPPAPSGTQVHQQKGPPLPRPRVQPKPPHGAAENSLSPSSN

“extracellular part of human CD58 (aa 29–213) (from UniProt P19256 29-213) (ligand)” registered an efficacy (Emax) of cytokine production (TNF-α, IFN-γ, IL-2; ELISA) by c58c61-TCR CD8+ T cell blasts on plate-immobilised pMHC with a titration of coimmobilised CD58, 8 h greater than 10 fold and a potency (EC50 of pMHC) of cytokine production (TNF-α, IFN-γ, IL-2; ELISA) by c58c61-TCR CD8+ T cell blasts on plate-immobilised pMHC with a titration of coimmobilised CD58, 8 h of 50 fold.
